Article PMC8346688 (Redox Biology, 2021)

Columns and labels:
[1] = molecular target: the molecule itself; test: native gel or EMSA
[2] = molecular target: the molecule itself; test: non-reducing SDS-PAGE with western blot

B1: BirA*-Flag-Prdx2 (natural protein, UniProt P32119 1-198, looked up)
chain: MASGNARIGKPAPDFKATAVVDGAFKEVKLSDYKGKYVVLFFYPLDFTFVCPTEIIAFSNRAEDFRKLGCEVLGVSVDSQFTHLAWINTPRKEGGLGPLNIPLLADVTRRLSEDYGVLKTDEGIAYRGLFIIDGKGVLRQITVNDLPVGRSVDEALRLVQAFQYTDEHGEVCPAGWKPGSDTIKPNVDDSKEYFSKHN
stoichiometry N [1]: 10
stoichiometry N [2]: 2

B2: His-Prdx2 (natural protein, UniProt P32119 1-198, looked up)
chain: MASGNARIGKPAPDFKATAVVDGAFKEVKLSDYKGKYVVLFFYPLDFTFVCPTEIIAFSNRAEDFRKLGCEVLGVSVDSQFTHLAWINTPRKEGGLGPLNIPLLADVTRRLSEDYGVLKTDEGIAYRGLFIIDGKGVLRQITVNDLPVGRSVDEALRLVQAFQYTDEHGEVCPAGWKPGSDTIKPNVDDSKEYFSKHN
stoichiometry N [1]: 10
stoichiometry N [2]: 2
